This assay has as its target Flu-m158-66-TCR, on Jurkat T cells.

For the substance “Influenza M158-66 ([…]) presented by HLA-A0201, single-chain trimer of pMHC displayed on the lentiviral surface (from UniProt P61769 21-119) (peptide-MHC)”, the percent of T cells GFP+ is above 87%.

These data come from patent US20250027073A1.
